Results published in PMC8991601.

How the values were obtained:
[1] = system: N[C@@H](CC(=O)O)C(=O)Nc1ccc([N+](=O)[O-])cc1; assay: purified protein; settings: 10 mM Tris-HCl, pH 7.5, 50 °C
[2] = system: N[C@@H](CCC(=O)O)C(=O)Nc1ccc([N+](=O)[O-])cc1; assay: purified protein; settings: 10 mM Tris-HCl, pH 7.5, 50 °C

Substance	Km [1] [µM]	Km [2] [µM]
bDNPEP (recombinant bovine aspartyl aminopeptidase) (Bos taurus)	389	314
cDNPEP (recombinant chicken aspartyl aminopeptidase) (Gallus gallus)	767	137
